# “And” between values parts separate entries of the source, which are not always exact repeats. Equal entries are not always repeated.
# B1: N715A, Q8GRA2 (parent)
# chain: MKKTRFPNKLNTLNTQRVLSKNSKRFTVTLVGVFLMIFALVTSMVGAKTVFGLVESSTPNAINPDSSSEYRWYGYESYVRGHPYYKQFRVAHDLRVNLEGSRSYQVYCFNLKKAFPLGSDSSVKKWYKKHDGISTKFEDYAISPRITGDELNQKLRAVMYNGHPQNANGIMEGLEPLNAIRVTQEAVWYYSDNAPISNPDESFKRESESNLVSTSQLSLMRQALKQLIDPNLATKMPKQVPDDFQLSIFESEDKGDKYNKGYQNLLSGGLVPTKPPTPGDPPMPPNQPQTTSVLIRKYAIGDYSKLLEGATLQLTGDNVNSFQARVFSSNDIGERIELSDGTYTLTELNSPAGYSIAEPITFKVEAGKVYTIIDGKQIENPNKEIVEPYSVEAYNDFEEFSVLTTQNYAKFYYAKNKNGSSQVVYCFNADLKSPPDSEDGGKTMTPDFTTGEVKYTHIAGRDLFKYTVKPRDTDPDTFLKHIKKVIEKGYREKGQAIEYSGLTETQLRAATQLAIYYFTDSAELDKDKLKDYHGFGDMNDSTLAVAKILVEYAQDSNPPQLTDLDFFIPNNNKYQSLIGTQWHPEDLVDIIRMEDKKEVIPVTHNLTLRKTVTGLAGDRTKDFHFEIELKNNKQELLSQTVKTDKTNLEFKDGKATINLKHGESLTLQGLPEGYSYLVKETDSEGYKVKVNSQEVANATVSKTGITSDETLAFENNKEPVVPTGVDQKINGYLALIVIAGISLGIWGIHTIRIRKHD
# Variants of: B1
# Conditions: Streptococcus pyogenes; pH 7.2; Thermal; CD; Potassium phosphate 50mM; structure 2XIC; whole UniProt chain shown
Variant,unfolding enthalpy (van 't Hoff),"change of melting temperature, mutant - wild type (higher = more stable)"
N715A,147 kcal/mol and 85.9 kcal/mol,–
C426A,113 kcal/mol and 123 kcal/mol,-1.7 °C and 0.2 °C
D595A N715A,62.1 kcal/mol and 71.4 kcal/mol,–
D595A,108 kcal/mol and 115 kcal/mol,–

# Reference: FireProtDB (doi:10.1002/prot.24420)
